Patent US20250206828A1, “ANTI-ADENOSINE RECEPTOR (A2aR) ANTIBODIES AND THE USE THEREOF” (Adept Therapeutics Inc., priority 2022, published 2025)
Positions count from the first letter of the chain named. Numbers in names are those of the source. Like-named read-outs stand apart in the source and are kept apart here.

B1: Hu3F8-H3/Hu3F8-L5 (antibody, human IgG1, V domains shown)
VH: EVQLVQSGAEVKKPGASVKVSCKASGFTFTRYWMNWVRQAPGQGLEWIGRIDPSDSETHYNHKFWGRATLTVDTSTSTVYMELSSLRSEDTAVYYCLRSLYGKGDYWGQGTTVTVSS
VL: DVVMTQSPLSLPVTPGEPASISCRSSQSIVHSNGNTYLEWYLQKPGQSPQLLIYKVSNRFSGVPDRFSGSGSGTDFTLKISRVEAEDVGVYYCYQGSHVPLTFGGGTKVEIK
notes: Human IgG1 FES (L234F, L235E, P331S) and human Ig kappa constant domains; also called Hu3F8 VH3/VL5
B2: Hu3F8-H3/Hu3F8-L1 (antibody, human IgG1, V domains shown)
VH: B1 VH
VL: B1 VL with P15L, E17Q, Y41F, L42Q, K44R, Q50R, L51R
B3: Hu3F6-H3/Hu3F6-L4 (antibody, human IgG1, V domains shown)
VH: B1 VH with A24T, T28A, R31S, T58A, N61H, T76S, Q109H
VL: B1 VL with V2I, S7T, P12S, E17Q, I29L, S32R
notes: Human IgG1 FES (L234F, L235E, P331S) and human Ig kappa constant domains; also called Hu3F6 VH3/VL4
B4: Hu3F6-H5/Hu3F6-L2 (antibody, human IgG1, V domains shown)
VH: B1 VH with A24T, T28A, R31S, T58A, N61A, T74K, T76S, Q109H
VL: B1 VL with P15L, E17Q, I29L, S32R, L42Q, K44R, Q50R, L51R
B5: Hu3F6-H5/Hu3F6-L3 (antibody, human IgG1, V domains shown)
VH: B1 VH with A24T, T28A, R31S, T58A, N61A, T74K, T76S, Q109H
VL: B1 VL with P15L, E17Q, I29L, S32R, L42Q, K44R, Q50R
notes: Human IgG1 FES (L234F, L235E, P331S) and human Ig kappa constant domains; also called Hu3F6 VH5/VL3
B6: Hu3F6-H5/Hu3F6-L4 (antibody, human IgG1, V domains shown)
VH: B1 VH with A24T, T28A, R31S, T58A, N61A, T74K, T76S, Q109H
VL: B1 VL with V2I, S7T, P12S, E17Q, I29L, S32R
notes: Human IgG1 FES (L234F, L235E, P331S) and human Ig kappa constant domains; also called Hu3F6 VH5/VL4
B7: Hu3F6-H3/Hu3F6-L3 (antibody, human IgG1, V domains shown)
VH: B1 VH with A24T, T28A, R31S, T58A, N61H, T76S, Q109H
VL: B1 VL with P15L, E17Q, I29L, S32R, L42Q, K44R, Q50R
notes: Human IgG1 FES (L234F, L235E, P331S) and human Ig kappa constant domains; also called Hu3F6 VH3/VL3
B8: Hu3F8-H3/Hu3F8-L2 (antibody, human IgG1, V domains shown)
VH: B1 VH
VL: B1 VL with P15L, E17Q, L42Q, K44R, Q50R, L51R
B9: Hu3F6-H5/Hu3F6-L8 (antibody, human IgG1, V domains shown)
VH: B1 VH with A24T, T28A, R31S, T58A, N61A, T74K, T76S, Q109H
VL: B1 VL with I29L, S32R
notes: Human IgG1 FES (L234F, L235E, P331S) and human Ig kappa constant domains; also called Hu3F6 VH5/VL8
B10: Hu3F8-H6/Hu3F8-L4 (antibody, human IgG1, V domains shown)
VH: EVQLVQSGAEVKKPGESLRISCKASGFTFTRYWMNWVRQMPGKGLEWIGRIDPSDSETHYNHKFWGHATLSVDKSSSTVYLQWSSLKASDTAMYYCLRSLYGKGDYWGQGTTVTVSS
VL: B1 VL with V2I
notes: Human IgG1 FES (L234F, L235E, P331S) and human Ig kappa constant domains
B11: Hu3F8-H4/Hu3F8-L5 (antibody, human IgG1, V domains shown)
VH: B1 VH with T74K
VL: B1 VL
notes: Human IgG1 FES (L234F, L235E, P331S) and human Ig kappa constant domains; also called Hu3F8 VH4/VL5
B12: Hu3F6-H3/Hu3F6-L5 (antibody, human IgG1, V domains shown)
VH: B1 VH with A24T, T28A, R31S, T58A, N61H, T76S, Q109H
VL: B1 VL with S7T, P12S, E17Q, I29L, S32R
notes: Human IgG1 FES (L234F, L235E, P331S) and human Ig kappa constant domains; also called Hu3F6 VH3/VL5; Hu3F6-VH3/VL5
B13: Hu3F8-H5/Hu3F8-L5 (antibody, human IgG1, V domains shown)
VH: B1 VH with H62A, T74K
VL: B1 VL
notes: as for B10
B14: Hu3F8-H3/Hu3F8-L3 (antibody, human IgG1, V domains shown)
VH: B1 VH
VL: B1 VL with P15L, E17Q, L42Q, K44R, Q50R
notes: Human IgG1 FES (L234F, L235E, P331S) and human Ig kappa constant domains; also called Hu3F8 VH3/VL3
B15: Hu3F8-H2/Hu3F8-L3 (antibody, human IgG1, V domains shown)
VH: B1 VH with I48M, A68V, L70M
VL: B1 VL with P15L, E17Q, L42Q, K44R, Q50R
notes: Human IgG1 FES (L234F, L235E, P331S) and human Ig kappa constant domains; also called Hu3F8 VH2/VL3
B16: Hu3F8-H6/Hu3F8-L5 (antibody, human IgG1, V domains shown)
VH: B10 VH
VL: B1 VL
notes: Human IgG1 FES (L234F, L235E, P331S) and human Ig kappa constant domains; also called Hu3F8 VH6/VL5
B17: Hu3F8-H2/Hu3F8-L5 (antibody, human IgG1, V domains shown)
VH: B1 VH with I48M, A68V, L70M
VL: B1 VL
notes: Human IgG1 FES (L234F, L235E, P331S) and human Ig kappa constant domains; also called Hu3F8 VH2/VL5
B18: Hu3F8-H1/Hu3F8-L5 (antibody, human IgG1, V domains shown)
VH: B1 VH with E1Q, I48M, A68V, L70M, V72R
VL: B1 VL
notes: Human IgG1 FES (L234F, L235E, P331S) and human Ig kappa constant domains; also called Hu3F8 VH1/VL5
B19: Hu3F8-H6/Hu3F8-L3 (antibody, human IgG1, V domains shown)
VH: B10 VH
VL: B1 VL with P15L, E17Q, L42Q, K44R, Q50R
notes: Human IgG1 FES (L234F, L235E, P331S) and human Ig kappa constant domains; also called Hu3F8 VH6/VL3
B20: Hu3F8-H5/Hu3F8-L4 (antibody, human IgG1, V domains shown)
VH: B1 VH with H62A, T74K
VL: B1 VL with V2I
notes: as for B10
B21: Hu3F8-H5/Hu3F8-L3 (antibody, human IgG1, V domains shown)
VH: B1 VH with H62A, T74K
VL: B1 VL with P15L, E17Q, L42Q, K44R, Q50R
notes: as for B10
B22: Hu3F8-H1/Hu3F8-L3 (antibody, human IgG1, V domains shown)
VH: B1 VH with E1Q, I48M, A68V, L70M, V72R
VL: B1 VL with P15L, E17Q, L42Q, K44R, Q50R
notes: as for B10
B23: Hu3F8-H3/Hu3F8-L4 (antibody, human IgG1, V domains shown)
VH: B1 VH
VL: B1 VL with V2I
notes: as for B10
B24: Hu3F8-H4/Hu3F8-L3 (antibody, human IgG1, V domains shown)
VH: B1 VH with T74K
VL: B1 VL with P15L, E17Q, L42Q, K44R, Q50R
notes: Human IgG1 FES (L234F, L235E, P331S) and human Ig kappa constant domains; also called Hu3F8 VH4/VL3
B25: Hu3F8-H4/Hu3F8-L4 (antibody, human IgG1, V domains shown)
VH: B1 VH with T74K
VL: B1 VL with V2I
notes: Human IgG1 FES (L234F, L235E, P331S) and human Ig kappa constant domains; also called Hu3F8 VH4/VL4

Assays:
[1] = molecular target: T1, human adenosine A2A receptor (A2aR) (human, UniProt P29274 1-412); assay: flow cytometry on PBMC, donor human 2, isotype control
[2] = molecular target: T1, human adenosine A2A receptor (A2aR); assay: flow cytometry on PBMC, donor human 1, isotype control
[3] = molecular target: cynomolgus adenosine A2A receptor (A2aR) (cynomolgus); assay: flow cytometry on PBMC, donor Cynomolgus 1, isotype control
[4] = molecular target: cynomolgus adenosine A2A receptor (A2aR) (cynomolgus); assay: flow cytometry on PBMC, donor Cynomolgus 2, isotype control
[5] = molecular target: T1, human adenosine A2A receptor (A2aR); assay: flow cytometry titration, HEK293-hA2aR cells, purified antibody
[6] = molecular target: T1, human adenosine A2A receptor (A2aR); assay: cell-based or functional assay
[7] = molecular target: T1, human adenosine A2A receptor (A2aR); assay: flow cytometry, HEK293-hA2aR cells, supernatant 1 ug/ml
[8] = molecular target: T1, human adenosine A2A receptor (A2aR); assay: as above
[9] = molecular target: T1, human adenosine A2A receptor (A2aR); assay: as above; remark: listed apart in the source
[10] = molecular target: T1, human adenosine A2A receptor (A2aR); assay: cell-based or functional assay; remark: listed apart in the source
[11] = molecular target: cynomolgus adenosine A2A receptor (A2aR) (cynomolgus); assay: flow cytometry on PBMC, donor Cynomolgus 2
[12] = molecular target: T1, human adenosine A2A receptor (A2aR); assay: cell-based or functional assay; remark: listed apart in the source
[13] = molecular target: cynomolgus adenosine A2A receptor (A2aR) (cynomolgus); assay: flow cytometry on PBMC, donor Cynomolgus 1

T1 sequence (P29274 whole entry): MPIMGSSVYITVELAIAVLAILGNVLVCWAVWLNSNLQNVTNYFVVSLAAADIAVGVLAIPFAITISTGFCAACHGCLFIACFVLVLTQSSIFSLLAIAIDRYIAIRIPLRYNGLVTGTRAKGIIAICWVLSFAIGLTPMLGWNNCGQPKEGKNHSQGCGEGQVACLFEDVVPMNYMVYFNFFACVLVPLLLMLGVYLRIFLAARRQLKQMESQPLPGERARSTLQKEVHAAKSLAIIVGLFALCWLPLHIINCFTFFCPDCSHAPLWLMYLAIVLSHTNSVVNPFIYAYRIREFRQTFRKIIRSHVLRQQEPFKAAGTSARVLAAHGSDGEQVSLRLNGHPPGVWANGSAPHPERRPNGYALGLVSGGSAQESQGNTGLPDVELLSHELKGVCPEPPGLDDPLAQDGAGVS

Molecule	EC50 [5] [nM]	IC50 of blocking activity, cAMP-Glo, 300 nM NECA, HEK293-hA2aR cells, supernatant [6] [nM]	MFI [7] [MFI]	further results
Anti-HEL isotype control (BioIntron) (antibody)				% of A2aR+ CD4+ T cells [1]: 0.012%; % of A2aR+ CD8+ T cells [1]: 0.002%; % of A2aR+ NK cells [1]: 0.029%; % of A2aR+ NKT cells [1]: 0.058%; % of A2aR+ CD4+ T cells [2]: 0.083%; % of A2aR+ CD8+ T cells [2]: 0.005%; % of A2aR+ NK cells [2]: 0.21%; % of A2aR+ NKT cells [2]: 0.11%; % of A2aR+ CD4+ T cells [3]: 0.086%; % of A2aR+ CD8+ T cells [3]: 0.009%; % of A2aR+ NK cells [3]: 0.46%; % of A2aR+ NKT cells [3]: 0.22%; % of A2aR+ CD4+ T cells [4]: 0.099%; % of A2aR+ CD8+ T cells [4]: 0.007%; % of A2aR+ NK cells [4]: 0.42%; % of A2aR+ NKT cells [4]: 0.045%
B1	0.83	1.5	1850	
B2				MFI [8]: 64 MFI
B3	0.68			MFI [9]: 1840 MFI; IC50 of blocking activity, cAMP-Glo, 300 nM NECA, HEK293-hA2aR cells, supernatant [10]: 19.5 nM
B4				MFI [8]: 191 MFI
B5	0.5			MFI [9]: 2090 MFI; IC50 of blocking activity, cAMP-Glo, 300 nM NECA, HEK293-hA2aR cells, supernatant [10]: 1.3 nM
B6	0.52			MFI [9]: 1920 MFI; IC50 of blocking activity, cAMP-Glo, 300 nM NECA, HEK293-hA2aR cells, supernatant [10]: 7.8 nM
B7	0.64			MFI [9]: 1930 MFI; IC50 of blocking activity, cAMP-Glo, 300 nM NECA, HEK293-hA2aR cells, supernatant [10]: 2 nM
B8				MFI [8]: 93 MFI
B9	0.59			MFI [9]: 1890 MFI; IC50 of blocking activity, cAMP-Glo, 300 nM NECA, HEK293-hA2aR cells, supernatant [10]: 1.1 nM
B10		2.3	1880	
B11	0.75	1.5	1890	
B12	0.57			% of A2aR+ CD4+ T cells [11]: 1.2%; % of A2aR+ CD8+ T cells [11]: 0.11%; % of A2aR+ NK cells [11]: 2.07%; % of A2aR+ NKT cells [11]: 0.45%; IC50 of blocking activity, cAMP-Glo, 1.25 uM NECA, HEK293-hA2aR cells, purified antibody [12]: 0.8 nM; IC50 of blocking activity, cAMP-Glo, 5 uM Adenosine, HEK293-hA2aR cells, purified antibody [12]: 0.6 nM; MFI [9]: 1900 MFI; IC50 of blocking activity, cAMP-Glo, 300 nM NECA, HEK293-hA2aR cells, supernatant [10]: 5.3 nM; % of A2aR+ CD4+ T cells [13]: 1.65%; % of A2aR+ CD8+ T cells [13]: 0.05%; % of A2aR+ NK cells [13]: 6.52%; % of A2aR+ NKT cells [13]: 1.06%
B13		1.6	1900	
B14	0.69	1.1	1860	
B15	0.66	1.1	1800	
B16	0.65	1.5	1900	
B17	0.9	1.8	1770	
B18	0.85	1.4	1790	
B19	0.59	1.2	1880	
B20		2.2	1840	
B21		1.5	1840	
B22		1.5	1810	
B23		1.7	1840	
B24	0.6	0.7	1910	
B25	0.79	1	1880	
